# Source: PMC11735997
# Molecular target: Trichoplusia ni acetyl-coenzyme A carboxylase (Trichoplusia ni (endogenous in T. ni cells))
# Assay: cryo-EM structure; endogenous T. ni ACC (~2 uM) in 25 mM Hepes pH 8.0, 150 mM NaCl, 1 mM TCEP; refined with C2 symmetry to 3.12 Å; only the CT domain (1622-2396) modelled
substance,measurement,value
Trichoplusia ni acetyl-coenzyme A carboxylase,stoichiometry N,2
